3 molecules from PMC2629652 (FEBS letters, 2008) can be followed below.

Read-outs that look alike come from different tables or passages of the source.

The target of one data set is T1, FprA1 (Clostridium acetobutylicum, UniProt Q97K92).
T1 sequence (Q97K92 2-392): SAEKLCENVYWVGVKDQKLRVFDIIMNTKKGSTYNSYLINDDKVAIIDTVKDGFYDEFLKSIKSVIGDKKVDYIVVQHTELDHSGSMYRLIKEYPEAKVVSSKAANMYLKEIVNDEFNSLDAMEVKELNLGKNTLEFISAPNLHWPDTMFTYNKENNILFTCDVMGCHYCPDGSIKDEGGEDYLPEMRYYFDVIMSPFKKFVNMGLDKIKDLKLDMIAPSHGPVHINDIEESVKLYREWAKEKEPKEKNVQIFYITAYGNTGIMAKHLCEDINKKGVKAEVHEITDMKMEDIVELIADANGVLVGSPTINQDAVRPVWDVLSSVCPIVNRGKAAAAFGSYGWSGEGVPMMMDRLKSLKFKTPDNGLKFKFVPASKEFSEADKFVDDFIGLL
The data set is described as follows: TLC of the flavin cofactor. In kind it is binding. The conditions noted are these: co-purified oxidized flavin, 378 and 450 nm bands.

Data set [1] concerns the molecule itself. The data set is described as follows: SEC.
Data set [2] deals with the molecule itself. The data set is described as follows: SEC. This is another data set of the same source.

For `Cc1cc2nc3c(=O)[nH]c(=O)nc-3n(C[C@H](O)[C@H](O)[C@H](O)COP(=O)(O)O)c2cc1C` [FMN], on FprA1, the “TLC of the flavin cofactor; UV-visible absorption of purified protein” value is “TLC analysis identified FMN as the flavin cofactor in both FprA1 and FprA2”.

B1: C. acetobutylicum flavo-diiron protein FprA2 (enzyme, UniProt Q97GC0 1-400, looked up)
chain: MPAIKIKDNIFSVGVLNPSLRIFDIIMKTEYGTSYNAYLIKGKKNVLIDTVHGRFFDEYLENIKSVIDPSSIDYVIMNHCEPDHSGSLARLYEVAPQIKVIASNAGKIYLKNITNKETLDVKAVKTNDTLDIGNGKVLKFAIAPFLHWPDSMFTILEEDKIAFTCDFLGCHFCEPRMFDTKITYMPKYEKSFKEYYDAIFSPFKPYVVKGLDILDALDLDFIATSHGPILTREGLLAASKQKYRDLSSEIQSTTKYIPIFYCSAYGNTEILANEIASGIKSVLNDANIEMLDIINYDYSDLKEKINICDAFMLGTPTINKDALFPIWELIGGIDAVNCKNKPASAFGSFGWSGEAIPFVISRLKELKLKVFQDGFTCLFVPSEDDIKKAFKFGEDFAKSI
As for B1, the stoichiometry N – broadly, a count of units in the complex or per binding partner – in the data set “SEC [1]” is 4; in “SEC [2]”, 2.

B2: C. acetobutylicum flavo-diiron protein FprA1 (enzyme, UniProt Q97K92 1-392, looked up)
chain: MSAEKLCENVYWVGVKDQKLRVFDIIMNTKKGSTYNSYLINDDKVAIIDTVKDGFYDEFLKSIKSVIGDKKVDYIVVQHTELDHSGSMYRLIKEYPEAKVVSSKAANMYLKEIVNDEFNSLDAMEVKELNLGKNTLEFISAPNLHWPDTMFTYNKENNILFTCDVMGCHYCPDGSIKDEGGEDYLPEMRYYFDVIMSPFKKFVNMGLDKIKDLKLDMIAPSHGPVHINDIEESVKLYREWAKEKEPKEKNVQIFYITAYGNTGIMAKHLCEDINKKGVKAEVHEITDMKMEDIVELIADANGVLVGSPTINQDAVRPVWDVLSSVCPIVNRGKAAAAFGSYGWSGEGVPMMMDRLKSLKFKTPDNGLKFKFVPASKEFSEADKFVDDFIGLL
Turning to B2, in the data set “SEC [1]”, the “stoichiometry N” value worked out at 2.
